Results: US20130029902A1 (PHARIS BIOTECH, published 2013)

B1: ALB408-413 (peptide)
peptide: LVRYTK
notes: Synthetic fragment of human serum albumin
B2: ALB408-423 (peptide)
peptide: LVRYTKKVPQVSTPTL
notes: also called Human circulating antiviral albumin fragment; wild type peptide

How the values were obtained:
[1] = target: T1, EGFP-hCXCR4 (human, UniProt P61073 1-352); assay: competition with CXCL12-Tr on CXCR4 expressing HEK293 cells, FRET
Description: (§1) The CXCR4 receptor is stably transfected in Human Embryonic Kidney (HEK) cells as a fusion protein with the EGFP fluorescent protein fused to the extracellular amino-terminal part of the receptor (EGFP-CXCR4). The human chemokines CXCL12 and CXCL12-TexasRed were synthesized as described (Amara et al., 1999, JBC 274:23916-23925; Valenzuela-Fernandez, et al., 2001, JBC 276:26550-26558). Real-time fluorescence monitoring of ligand-receptor interactions was performed as followed: HEK293 cells expressing the fusion receptor, EGFP-hCXCR4, were harvested in phosphate-buffered saline supplemented with 5 mM EDTA, pH 7.4, centrifuged and resuspended in HEPES-bovine serum albumin buffer (10 mM HEPES, 137.5 mM NaCl, 1.25 mM MgCl2, 1.25 mM CaCl2, 6 mM KCl, 10 mM glucose, 0.4 mM NaH2PO4, 1% bovine serum albumin (w/v), pH 7.4) supplemented with protease inhibitors (40 μg/mL bestatin and bacitracin, 20 μg/mL phosphoramidon, 50 μg/mL chymostatin, and 1 μg/mL leupeptin). […] Time-based recordings of the fluorescence emitted at 510 nm (excitation at 470 nm) were performed at 21° C. using a spectrofluorimeter (fluorolog 2, Spex) and sampled every 0.3 s. Fluorescence binding measurements were initiated by adding at 30 seconds 100 nM of CXCL12-TR to 1 mL cell suspension. […] Then, CXCL12-TR (100 nM) was added and fluorescence was recorded until equilibrium was reached (300 sec). […]

[2] = target: T1, EGFP-hCXCR4; assay: competition with 100 nM CXCL12-TR on HEK293 cells expressing EGFP-hCXCR4, FRET
Description: as §1

[3] = target: CXCR4 (UniProt P61073 1-352, limits assumed); assay: cell-based or functional assay

T1 sequence (P61073 whole entry, the tested form may be a part): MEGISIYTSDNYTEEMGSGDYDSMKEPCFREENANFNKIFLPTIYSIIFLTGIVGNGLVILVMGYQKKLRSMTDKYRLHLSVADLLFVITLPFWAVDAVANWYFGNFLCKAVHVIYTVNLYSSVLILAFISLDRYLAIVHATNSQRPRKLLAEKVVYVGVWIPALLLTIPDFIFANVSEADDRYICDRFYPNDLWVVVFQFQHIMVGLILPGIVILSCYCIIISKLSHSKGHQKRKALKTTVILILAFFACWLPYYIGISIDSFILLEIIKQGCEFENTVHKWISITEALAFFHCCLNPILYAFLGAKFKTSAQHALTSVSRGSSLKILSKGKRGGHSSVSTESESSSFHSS

Binder | Kd [1] [µM] | EC50 [2] [µM] | Ki [2] [µM] | IC50, HIV-1 NL4-3 infection of TZM-bl cells (fraction 31 from hemofiltrate) [3] [µg/mL] | IC50, X4 tropic HIV-1 and HIV-2 infection of TZM-bl cells [3] [µM] | mean IC50, infection of TZM-bl cells by X4-tropic HIV-1 variants [3] [µg/mL]
B1 | > 200 |  |  |  |  | 
B2 |  | 8 | 3 | 21.4 | 10 to 20 | 24.2
